# Assay results: patent US20240376151A1, “STAPLED PEPTIDES AND METHODS THEREOF” (FOG PHARMACEUTICALS, INC., priority 2022, published 2024)
# Biological target: T1, beta-catenin (Homo sapiens, UniProt P35222)
# T1 construct: made in house; host or cells: E. coli BL21 (DE3) pLysS
# T1 sequence (P35222 134-665): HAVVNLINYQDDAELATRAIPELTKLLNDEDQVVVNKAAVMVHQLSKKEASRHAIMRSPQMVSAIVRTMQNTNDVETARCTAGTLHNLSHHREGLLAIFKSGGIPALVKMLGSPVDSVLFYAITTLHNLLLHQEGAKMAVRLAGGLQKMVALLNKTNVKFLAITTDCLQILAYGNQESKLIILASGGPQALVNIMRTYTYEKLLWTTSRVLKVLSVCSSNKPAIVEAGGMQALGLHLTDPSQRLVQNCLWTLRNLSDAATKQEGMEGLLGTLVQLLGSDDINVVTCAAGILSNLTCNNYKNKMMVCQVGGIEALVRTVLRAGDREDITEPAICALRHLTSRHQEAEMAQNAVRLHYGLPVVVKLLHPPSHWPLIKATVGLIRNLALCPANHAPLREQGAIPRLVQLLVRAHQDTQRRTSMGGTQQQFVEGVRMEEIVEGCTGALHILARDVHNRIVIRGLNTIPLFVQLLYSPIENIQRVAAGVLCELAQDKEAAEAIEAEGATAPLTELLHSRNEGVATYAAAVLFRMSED
# Assay: Phage Library Screening with NGS, beta-catenin
# Assay type: binding
# Details: for Target Concentration 10 (phage screen NGS readout): beta-catenin target concentration 10; for Target Concentration 10 (phage screen NGS readout) / Target Concentration 30 (phage screen NGS readout) / Target Concentration 100 (phage screen NGS readout) / Target Concentration 300 (phage screen NGS readout): no competitor; for Target Concentration 30 (phage screen NGS readout): beta-catenin target concentration 30; for Target Concentration 100 (phage screen NGS readout): beta-catenin target concentration 100; for Target Concentration 300 (phage screen NGS readout): beta-catenin target concentration 300; for Target Concentration 1000 (phage screen NGS readout): beta-catenin target concentration 1000
Target Concentration BLANK (phage screen NGS readout) (first column),Target Concentration BLANK (phage screen NGS readout) (fourth column),Target Concentration BLANK (phage screen NGS readout) (second column),Target Concentration BLANK (phage screen NGS readout) (third column),Target Concentration 10 (phage screen NGS readout),Target Concentration 30 (phage screen NGS readout),Target Concentration 100 (phage screen NGS readout),Target Concentration 300 (phage screen NGS readout),Target Concentration 1000 (phage screen NGS readout) (first 1000 column),Target Concentration 1000 (phage screen NGS readout) (second 1000 column),Sequence
0,1,0,0,0,22,76,68,139,56,DPAILDCQIAAIECEFA
0,0,0,0,0,1,0,10,39,3,DPAVLDCHIAALDCHAH
0,0,2,1,0,0,0,1,2,7,DPAVFMCYEAAFECQYF
0,0,0,1,10,12,81,226,273,227,DPADDFCMWAAEHCELL
0,0,0,0,0,5,24,36,45,30,DPADNECILAAHICTLA
0,0,0,0,2,10,81,147,203,280,DPATWHCDWAAEHCELL
0,0,2,0,0,2,11,86,95,62,DPAVHRCFWAAEHCDLI
0,0,0,0,2,18,70,147,118,122,DPADYDCILAAHICTNI
0,1,0,0,3,6,86,257,283,238,DPASWDCDHAALLCTLD
0,0,0,0,0,6,20,18,21,57,DPASWRCEHAALNCQID
0,0,0,0,0,1,22,67,140,55,DPAVLECHIAAWECNHT
1,0,0,0,2,15,60,231,177,234,DPAHWHCEHAALLCASV
1,0,2,2,41,151,612,1704,1683,1509,DPARHECILAAHICEWE
0,0,0,0,0,2,41,94,69,75,DPAELACEWAAIHCELV
0,0,1,0,6,35,226,419,326,432,DPAQWACEHAALLCSMD
0,0,1,0,0,13,37,109,177,82,DPAQNICEWAALHCDLI
0,0,1,2,3,14,152,42,543,409,DPAYWDCTHAALLCNLD
0,1,1,0,0,9,10,158,104,157,DPAVQDCEWAAIYCELI
0,0,2,0,0,1,22,51,69,40,DPAESDCILAAYICYVE
